Reference: patent US20180282403A1, “AGENTS FOR REDUCING THE ACTIVITY OF GDF15” (GENAGON THERAPEUTICS AB, priority 2015, published 2018)
Values belong to the molecule of their own block, whether it stands above or below them. Residues, ends and D or L forms follow the SMILES beside them. No end group written: not given here. *: point of attachment. Cbz = O=C(OCc1ccccc1)*

Legend:
QRFPR = target: T1, QRFPR (Homo sapiens, UniProt Q96P65); assay: QRFPR levels after prolonged GDF15 stimulation with or without proteasome inhibition; assay type: cell-based; conditions: MG132 10 μM + GDF15 overnight vs equal GDF15 without MG132; FIG. 6
T1 construct: endogenous in cells
T1 sequence (Q96P65 1-431): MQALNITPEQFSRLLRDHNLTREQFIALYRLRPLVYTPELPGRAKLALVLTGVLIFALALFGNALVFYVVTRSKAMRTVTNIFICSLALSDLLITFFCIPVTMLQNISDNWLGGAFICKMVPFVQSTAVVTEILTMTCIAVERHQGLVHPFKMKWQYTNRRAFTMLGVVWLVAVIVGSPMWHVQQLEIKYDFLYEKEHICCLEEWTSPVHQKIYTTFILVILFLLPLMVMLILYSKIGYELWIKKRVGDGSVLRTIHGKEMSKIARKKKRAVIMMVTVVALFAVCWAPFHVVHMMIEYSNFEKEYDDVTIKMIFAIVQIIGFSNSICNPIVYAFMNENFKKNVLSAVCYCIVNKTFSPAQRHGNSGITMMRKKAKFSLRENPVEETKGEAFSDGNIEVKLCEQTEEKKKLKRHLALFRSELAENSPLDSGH
Experimental: This effect is not seen in cells which are treated with MG132 (FIG. 6D).

GDF15 [1] = target: T2, GDF15 (Homo sapiens, UniProt Q99988); assay: Pull down of GDF15 by Fc fusion proteins with stringent washes; assay type: binding; conditions: 20 μg Fc fusion protein, 0.5 μg GDF15, protein-G bead, FIG. 27
T2 construct: purchased Abcam
T2 sequence (Q99988 197-308 limits assumed): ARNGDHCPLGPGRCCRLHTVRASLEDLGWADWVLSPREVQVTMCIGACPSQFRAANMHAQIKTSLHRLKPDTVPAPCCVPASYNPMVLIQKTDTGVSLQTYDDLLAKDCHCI
Experimental: (§1) 20 μg Fc fusion protein constructs were incubated with 0.5 μg GDF15 and protein-G bead with mixing for 6 hrs in +4 C in PBST+1% BSAs. Wash 6 times: 3 times PBST, change tubes, 2 washes PBST+220 mM NaCl. Last wash PBS. The beads were collected using a table-top centrifuge set at 500 g for 5 minutes between washes. Detection The material was loaded on a 4-12% gradient gel, run at 100 volt, transferred to PVDF membrane using a Turbo Tank blot system, blocked by PBS with 3% BSA 1 hr RT, and incubated with RD systems a monoclonal anti-GDF15 antibody overnight. A secondary antibody: mouse HRP 1:2000 was used for detection. The size of band was estimated by comparing with a seeblue2 protein ladder marker run in an adjacent lane.
The fragments from the receptors were selected based on previous results including array data indicating direct interaction with GDF15. In the array, the interaction is between a peptide monomer and the ligand.

CD14+ cells = assay: Cytokine secretion by LPS-stimulated CD14+ cells (Proseek assay); assay type: cell-based
Experimental: CD14+ cells where isolated and cultured in the presence or absence of GDF15 in a LPS stimulated culture.
Buffy coat cell suspension or heparinized blood samples were diluted with sterile, room temperature PBS. Peripheral blood samples are diluted 1:1, whereas buffy coats are diluted to a final volume of 120 ml (in a standard buffy coat this will result in slightly greater dilution than 1:1). The diluted cell suspension was layered onto Ficoll Paque PLUS. For one buffy 4×15 ml aliquots are used (30 ml of diluted cell suspension/tube). Cells were centrifuged at 400×g for 30 min at room temperature and transferred to a new 50 ml tube. Cells were washed once and resuspended in 20 ml PBS.
Mononuclear cell suspension was pelleted by centrifugation. Cells were resuspended in Stemcell buffer at a concentration of 10^8 cells/ml and transferred to a round bottom 14 ml tube. EasySep Positive Selection cocktail at was added at 100 μl/ml cells, mixed by gentle pipetting, and incubated at room temperature for 15 min. 50 μl EasySep Magnetic Nanoparticles per 1 ml cells were added and mixed, and incubated at room temperature for 10 min. Stemcell recommended medium was added to bring the cell suspension to a total volume of 5 ml and mixed by gently pipetting. The tube (without cap) was placed into the magnet and set aside for 5 min. After 5 minutes the supernatant was discarded. CD14+ labelled cells will remain inside the tube. The tube was removed from the magnet and add 5 ml Stemcell recommended medium was added and mixed by gently pipetting. The tube (without cap) was placed into the magnet and set aside for 5 min. The was step was repeated before the cells were resuspended in 5 ml complete RPMI medium. 50 μl of the CD14+ cell suspension was removed and counted to determine total cell number after dilution in Trypan blue solution and mounting on Fast Read 102 Counting Slides.
Adjust CD14+ cell suspension volume to a concentration of 0.833×10^6 cells/ml in complete RPMI medium. 300 μl of cell suspension is added to wells in a 48 well plate well (0.25×10^6 cells per well), and allowed to adhere for 90 min in an incubator at 37° C. Non-adherent cells were removed by removal of the supernatant after gently pipetting the medium. Cells were washed once with 300 μl pre-warmed complete RPMI medium and the medium aspirated off. 300 μl pre-warmed complete RPMI medium was added to each well and the cells were incubate overnight (20-24 h) in a cell incubator at 37° C.
A 17× stock solution of the desired GDF15 modulatory substances was diluted in complete RPMI. (20 μl of substance/well assayed). 20 μl of modulatory substance or medium/carrier (negative control) was added to each well and mixed by gentle pipetting. Cells were incubated for 30 min in a cell incubator at 37° C. A 17×GDF15 solution was prepared by diluting a 100 μg/ml stock solution to a concentration of 8.5 μg/ml (final concentration in culture 0.5 μg/ml) in complete RPMI. 20 μl of diluted GDF15 was added per well, and incubated overnight (18-20 h) in a cell incubator at 37° C.
A 18×LPS solution was prepared by diluting the LPS stock solution to a concentration of 18 ng/ml (final concentration in culture 1 ng/ml) in complete RPMI. 20 μl of LPS or medium (negative control) was added to each well and mixed by gentle pipetting. […]
Secreted proteins from cell cultures where quantified using multiplexed proximity extension assay, Proseek (Assarsson E et al PlosOne 2014) by Olink Proteomics AB (Uppsala Sweden). […]

GDF15 [2] = target: T2, GDF15; assay: Biotin pull-down of GDF15 using biotinylated peptides derived from QRFPR and CLPTM1; assay type: binding; conditions: N-terminal biotin peptides on Streptavidin-agarose beads, extensive washes; FIG. 8A
Experimental: In order to further characterise the peptides which interact with GDF15, a series of GST-fusion proteins and biotinylated peptides was prepared. GDF15 was obtained from Biovision and/or Abcam.
A series of peptides from the QRFPR and the CLPTM1 proteins was designed. In order to use the peptides both for immunoprecipitation experiments and cell culture based assays added an N-terminal biotin was added to each peptide, and the counter-ion changed to chloride.
A series of biotinylated peptides was used (FIG. 8A). […] Combinations of the peptides were also used. Peptides were mixed in a 1:1 ratio, with same total amounts as in lanes 1-5, resulting in 50% of each peptide as compared to lanes 1-5. Lane 6: EC domain 3 & EC domain 4 from QRFPR; Lane 7: EC domain 4 from QRFPR & peptide from EC domain of CLPTM1; Lane 8: EC domain 3 from QRFPR & peptide from EC domain of CLPTM1; Lane 9: Mw markers; Lane 10: GDF15 (positive control).

[3] = target: T3, Growth and differentiation factor 15 (GDF15) (UniProt Q99988 197-308, limits assumed); assay: Fc-fusion pull-down on protein-G beads, Western blot
T3 construct: Purchased GDF15 added to cells, pull-downs, peptide arrays and ELISA; also called MIC1
T3 sequence (looked up): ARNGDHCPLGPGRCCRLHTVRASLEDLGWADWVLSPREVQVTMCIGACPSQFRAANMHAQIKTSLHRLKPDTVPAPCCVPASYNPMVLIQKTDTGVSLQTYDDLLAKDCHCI
Experimental: as §1

[4] = target: T4, Cleft Lip and Palate Transmembrane protein 1 (CLPTM1) (human, UniProt O96005 2-669); assay: in situ PLA on NK-92 cells
T4 construct: Endogenous receptor of NK-92 cells, CD14+ cells and human tissues
T4 sequence: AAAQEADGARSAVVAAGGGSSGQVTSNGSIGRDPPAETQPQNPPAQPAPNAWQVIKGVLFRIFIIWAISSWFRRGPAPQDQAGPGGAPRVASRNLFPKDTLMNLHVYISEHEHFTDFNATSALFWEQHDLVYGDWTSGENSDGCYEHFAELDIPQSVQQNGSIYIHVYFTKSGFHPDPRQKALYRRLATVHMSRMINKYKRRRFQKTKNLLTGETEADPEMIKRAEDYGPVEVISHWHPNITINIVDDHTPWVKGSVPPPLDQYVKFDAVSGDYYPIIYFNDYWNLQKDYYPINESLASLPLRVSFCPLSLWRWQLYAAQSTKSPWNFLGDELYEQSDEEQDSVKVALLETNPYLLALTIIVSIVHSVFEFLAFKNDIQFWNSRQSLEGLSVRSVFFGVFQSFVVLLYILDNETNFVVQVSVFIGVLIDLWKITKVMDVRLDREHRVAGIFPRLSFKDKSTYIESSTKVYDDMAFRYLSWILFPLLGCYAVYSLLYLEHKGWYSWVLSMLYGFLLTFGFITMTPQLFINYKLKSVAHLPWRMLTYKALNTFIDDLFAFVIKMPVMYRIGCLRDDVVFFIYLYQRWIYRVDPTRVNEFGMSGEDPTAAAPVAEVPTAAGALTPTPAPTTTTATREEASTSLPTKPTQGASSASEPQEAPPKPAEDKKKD

[5] = LPS stimulated CD14+ cells with GDF15 + agent

binding result [3]: binds
B1: AP5 (QRFPR peptide): Fc mouse IgG1-GGGGSGGGGSGGGGSQRLEIKYDFLYEKEH (Fc fusion, not shown: a dimerising Fc or GST)
chain: {Fc mouse IgG1}-GGGGSGGGGSGGGGSQRLEIKYDFLYEKEH
modifications: also: Fc fusion dimer
notes: if the entry holds the Fc too, the first part is redundant; also called AP5 construct; Fc fusion protein comprising a QRFPR polypeptide

binding result [4]: binds
B2: TGFBRI (ALK5) (receptor, UniProt P36897 34-503, looked up)
chain: LQCFCHLCTKDNFTCVTDGLCFVSVTETTDKVIHNSMCIAEIDLIPRDRPFVCAPSSKTGSVTTTYCCNQDHCNKIELPTTVKSSPGLGPVELAAVIAGPVCFVCISLMLMVYICHNRTVIHHRVPNEEDPSLDRPFISEGTTLKDLIYDMTTSGSGSGLPLLVQRTIARTIVLQESIGKGRFGEVWRGKWRGEEVAVKIFSSREERSWFREAEIYQTVMLRHENILGFIAADNKDNGTWTQLWLVSDYHEHGSLFDYLNRYTVTVEGMIKLALSTASGLAHLHMEIVGTQGKPAIAHRDLKSKNILVKKNGTCCIADLGLAVRHDSATDTIDIAPNHRVGTKRYMAPEVLDDSINMKHFESFKRADIYAMGLVFWEIARRCSIGGIHEDYQLPYYDLVPSDPSVEEMRKVVCEQKLRPNIPNRWQSCEALRVMAKIMRECWYANGAARLTALRIKKTLSQLSQQEGIKM
notes: whole, on cells; also called TGFBR1

binding result [3]: binds
B3: AP2 (CLPTM1 peptide): Fc mouse IgG1-GGGGSGGGGSGGGGSYISEHEHFTDFNATSALFWEQHDLVYGDWTS (Fc fusion, not shown: a dimerising Fc or GST)
chain: {Fc mouse IgG1}-GGGGSGGGGSGGGGSYISEHEHFTDFNATSALFWEQHDLVYGDWTS
modifications: also: Fc fusion dimer
notes: also called AP2 construct; Fc fusion protein comprising a CLPTM1 polypeptide

binding result [4]: binds
B4: TGFBRII (receptor, UniProt P37173 23-567, looked up)
chain: TIPPHVQKSVNNDMIVTDNNGAVKFPQLCKFCDVRFSTCDNQKSCMSNCSITSICEKPQEVCVAVWRKNDENITLETVCHDPKLPYHDFILEDAASPKCIMKEKKKPGETFFMCSCSSDECNDNIIFSEEYNTSNPDLLLVIFQVTGISLLPPLGVAISVIIIFYCYRVNRQQKLSSTWETGKTRKLMEFSEHCAIILEDDRSDISSTCANNINHNTELLPIELDTLVGKGRFAEVYKAKLKQNTSEQFETVAVKIFPYEEYASWKTEKDIFSDINLKHENILQFLTAEERKTELGKQYWLITAFHAKGNLQEYLTRHVISWEDLRKLGSSLARGIAHLHSDHTPCGRPKMPIVHRDLKSSNILVKNDLTCCLCDFGLSLRLDPTLSVDDLANSGQVGTARYMAPEVLESRMNLENVESFKQTDVYSMALVLWEMTSRCNAVGEVKDYEPPFGSKVREHPCVESMKDNVLRDRGRPEIPSFWLNHQGIQMVCETLTECWDHDPEARLTAQCVAERFSELEHLDRLSGRSCSEEKIPEDGSLNTTK
notes: whole, on cells

Further lines, the molecule ahead of its results:

Molecule: CC(C)C[C@@H](C=O)NC(=O)[C@H](CC(C)C)NC(=O)[C@H](CC(C)C)NC(=O)OCc1ccccc1 [MG132, reference compound] (Cbz-Leu-Leu-Leu-aldehyde)
levels of QRFPR (QRFPR): levels of QRFPR were increased

Molecule: Fc mouse IgG1-GGGGSGGGGSGGGGSYISEHEHFTDFNATSALFWEQHDLVYGDWTS ({Fc mouse IgG1}-GGGGSGGGGSGGGGSYISEHEHFTDFNATSALFWEQHDLVYGDWTS) [AP2, Fc fusion protein with CLPTM1 peptide]
pull down of GDF15 by Fc fusion protein (GDF15 [1]): capable of pulling down GDF15
secretion of IFNγ (CD14+ cells; LPS stimulated CD14+ cells + agent, FIG. 30): demonstrated secretion of the pro-inflammatory protein IFNγ
secretion of IL12 (CD14+ cells; [5]): increase in secretion of both cytokines
secretion of TNF (CD14+ cells; [5]): increase in secretion of both cytokines

Molecule: GALFWEQHDLVYGDWTS (listed as Homo sapiens) [SEQ ID NO:19]
GDF15 precipitated by biotinylated peptide (pull-down) (GDF15 [2]): more successful than the others in precipitating GDF15

Molecule: GEIKYDFLYEKEHICCLEEWTS (listed as Homo sapiens) [SEQ ID NO:10]
GDF15 precipitated by biotinylated peptide (pull-down) (GDF15 [2]): more successful than the others in precipitating GDF15
